Article PMC11791182, “Molecular mechanism targeting condensin for chromosome condensation” (The EMBO Journal, 2024)

T1: Ycg1 (6–932, Δ499–555)-Brn1 (384–529) (S. cerevisiae, UniProt Q06680 6-932; P38170 384-529, Δ499–555)
T1 construct: Ycg1, condensin HAWK subunit, S. cerevisiae, residues 6-932 with 499-555 deleted; Brn1, condensin kleisin subunit, S. cerevisiae, residues 384-529; Construct was a gift of Christian Haering (Kschonsak et al, 2017); also called Ycg1-Brn1; source: E. coli, purified (as described previously, Kschonsak et al, 2017)
T1 sequence (looked up) 1: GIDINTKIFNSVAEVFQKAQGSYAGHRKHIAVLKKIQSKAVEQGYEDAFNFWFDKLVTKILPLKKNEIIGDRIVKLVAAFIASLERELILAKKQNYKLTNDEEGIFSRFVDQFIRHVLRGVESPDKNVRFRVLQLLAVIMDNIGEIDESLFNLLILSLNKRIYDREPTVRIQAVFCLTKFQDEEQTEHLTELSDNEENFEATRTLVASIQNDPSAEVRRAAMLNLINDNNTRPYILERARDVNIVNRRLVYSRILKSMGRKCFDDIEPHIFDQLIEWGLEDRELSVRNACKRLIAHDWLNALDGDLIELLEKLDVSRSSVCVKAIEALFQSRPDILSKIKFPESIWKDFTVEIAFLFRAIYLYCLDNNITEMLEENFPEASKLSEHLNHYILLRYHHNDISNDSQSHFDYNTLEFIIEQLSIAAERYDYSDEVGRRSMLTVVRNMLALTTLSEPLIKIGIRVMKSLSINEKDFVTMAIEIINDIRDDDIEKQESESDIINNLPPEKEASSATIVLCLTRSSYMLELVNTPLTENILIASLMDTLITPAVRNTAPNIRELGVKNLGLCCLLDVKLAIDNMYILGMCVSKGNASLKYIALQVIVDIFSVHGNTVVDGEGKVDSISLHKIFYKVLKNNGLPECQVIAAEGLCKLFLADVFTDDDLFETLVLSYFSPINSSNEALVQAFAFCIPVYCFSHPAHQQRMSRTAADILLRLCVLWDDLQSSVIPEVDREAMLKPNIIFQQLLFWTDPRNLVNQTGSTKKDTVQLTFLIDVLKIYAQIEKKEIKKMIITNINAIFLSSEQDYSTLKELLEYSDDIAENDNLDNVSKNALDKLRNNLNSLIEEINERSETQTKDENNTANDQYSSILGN
T1 sequence (looked up) 2: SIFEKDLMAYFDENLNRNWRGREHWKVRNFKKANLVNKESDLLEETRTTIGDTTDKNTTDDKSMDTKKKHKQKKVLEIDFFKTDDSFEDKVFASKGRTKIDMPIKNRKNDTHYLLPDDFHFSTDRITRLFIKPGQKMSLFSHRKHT


How the values were obtained:
Conditions in all cases: both partners purified
[1] = target: T2, pentameric condensin holo-complex (S. cerevisiae, UniProt P38989 1-1170; Q12267 1-1418; P38170 1-754; Q06680 1-1035; Q06156 1-1176); experiment: co-IP; two purified recombinant proteins with anti-V5-coupled dynabeads (V5-Sgo1 held), 2.5 h; 25 mM HEPES pH 7.5, 500 mM NaCl, 10% glycerol, 1 mM DTT, 0.1% NP-40; silver-stained SDS-PAGE and immunoblot
T2 construct: Smc2, condensin subunit, S. cerevisiae; Smc4, condensin subunit, S. cerevisiae; Brn1, condensin kleisin subunit, S. cerevisiae; Ycg1, condensin HAWK subunit, S. cerevisiae; Ycs4, condensin HAWK subunit, S. cerevisiae; Constructs were a gift (St-Pierre et al, 2009); also called Sc condensin complex; condensin (Brn1-6HA); source: purified from yeast (as described previously, Kschonsak et al, 2017); …

[2] = target: T1, Ycg1 (6–932, Δ499–555)-Brn1 (384–529); experiment: co-IP; two purified recombinant proteins with anti-GFP-coupled dynabeads (GFP-Sgo1 variants held), 2.5 h; 25 mM HEPES pH 7.5, 500 mM NaCl, 10% glycerol, 1 mM DTT, 0.1% NP-40; silver-stained SDS-PAGE
[3] = target: T1, Ycg1 (6–932, Δ499–555)-Brn1 (384–529); experiment: SEC; Sgo1 (350–590) with Ycg1 (6–932, Δ499–555)-Brn1 (384–529); Superdex200 10/300 24 ml column; 10 mM Tris-HCl pH 7.5, 250 mM NaCl, 5% glycerol, 0.001% Tween-20

| Binder | binding result [1] | binding result [2] | binding result [3] |
| --- | --- | --- | --- |
| V5-Sgo1 (FL) (natural protein, S. cerevisiae, UniProt Q08490 1-590, looked up, Sgo1 (shugoshin), S. cerevisiae, full length; also called full-length V5-Sgo1; Sc Sgo1; source: protease-deficient yeast strain (AM8184), purified (Ni2+ IMAC, Superose 6 gel filtration)) MPKRKIAPNKESSRRTVSHDDLTPQIQEFQNLMDLESQKVENIRQSYSRQNSLLAKDNSILKIKVNSLEKKISQLVQENVTLRSKTSISEAIYRERLSNQLQVIENGIIQRFDEIFYMFENVRKNENLPSSSLRTMLKRTSSRSRSCSLSSPTYSKSYTRLSNHENNLSHESSFNKDDGPDLEPKAKKRKSSRRQSMFVSTSLEPEDETGENEPMMENSSVEVPAESHESAQVEETIDALNPEEENSDSVSNFTNSIIEYSIPEENPTEPEHSSSKLEIFNDSTNMLSTVPSNPLPLPLPGPSATLPTTTSDASTVYPSSSSSTNSHPKTKIKHSMKPPRIELKKKVIDEVMPVSNMSSNSEISFTRTRRTRGKAVDYTLPSLRAKMRRPSEKLVDATTVIDIHDLQVSKRNRETSHKRKSLSQDSIPDEPQLREVVVSKDYGTPKGKKTEDEIHEDTAHLMTTSNNNSNNKNEKKLTSNNSPKKSSPLLDITNKSENKKKSTRTKKLFKNAIVNNLSDENSTTRPSKSSKGTSNNNNNYNNFDNNNSNINNVNNKSVSFRLNEDDLAVFDLFGNGKAVKHQPKTYRTKK | binds | – | – |
| GFP-Sgo1 (472-530) (domain or fragment, S. cerevisiae, UniProt Q08490 472-530, looked up, Sgo1 (shugoshin), S. cerevisiae, residues 472-530; also called Recombinant Sgo1 (472-530), wild type; source: E. coli BL21(DE3), purified (Ni-NTA resin, dialysis)) KNEKKLTSNNSPKKSSPLLDITNKSENKKKSTRTKKLFKNAIVNNLSDENSTTRPSKSS | – | binds | – |
| GFP-Sgo1 (350–590) (domain or fragment, S. cerevisiae, UniProt Q08490 350-590, looked up, Sgo1 (shugoshin), S. cerevisiae, residues 350-590; also called C-terminal region of Sgo1 (residues 350–590); C-Sgo1) EVMPVSNMSSNSEISFTRTRRTRGKAVDYTLPSLRAKMRRPSEKLVDATTVIDIHDLQVSKRNRETSHKRKSLSQDSIPDEPQLREVVVSKDYGTPKGKKTEDEIHEDTAHLMTTSNNNSNNKNEKKLTSNNSPKKSSPLLDITNKSENKKKSTRTKKLFKNAIVNNLSDENSTTRPSKSSKGTSNNNNNYNNFDNNNSNINNVNNKSVSFRLNEDDLAVFDLFGNGKAVKHQPKTYRTKK | – | binds | – |
| V5-Sgo1 (350–590) (domain or fragment, S. cerevisiae, UniProt Q08490 350-590, looked up, Sgo1 (shugoshin), S. cerevisiae, residues 350-590; also called recombinant C-terminal region of Sgo1 (350–590); source: protease-deficient yeast strain (AM8184), galactose induced, purified (Ni2+ IMAC, Superose 6 gel filtration)) EVMPVSNMSSNSEISFTRTRRTRGKAVDYTLPSLRAKMRRPSEKLVDATTVIDIHDLQVSKRNRETSHKRKSLSQDSIPDEPQLREVVVSKDYGTPKGKKTEDEIHEDTAHLMTTSNNNSNNKNEKKLTSNNSPKKSSPLLDITNKSENKKKSTRTKKLFKNAIVNNLSDENSTTRPSKSSKGTSNNNNNYNNFDNNNSNINNVNNKSVSFRLNEDDLAVFDLFGNGKAVKHQPKTYRTKK | binds | – | binds |
